In patent US20210253725A1 (BIONTECH, published 2021):

T1: CD134 expressed on the cell surface of HT1080_OX40 cells (human, UniProt P43489 29-277)
T1 sequence (looked up): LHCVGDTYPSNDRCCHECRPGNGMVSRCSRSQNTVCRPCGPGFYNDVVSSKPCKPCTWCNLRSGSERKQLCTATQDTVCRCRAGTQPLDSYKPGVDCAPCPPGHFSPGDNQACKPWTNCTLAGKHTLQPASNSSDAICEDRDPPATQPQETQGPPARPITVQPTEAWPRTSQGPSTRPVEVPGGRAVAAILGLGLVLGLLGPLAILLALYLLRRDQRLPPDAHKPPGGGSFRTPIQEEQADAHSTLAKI

T2: CD134 protein (His-tagged, Sino Biological Inc. 10481-H08H) (human, UniProt P43489 29-216)
T2 construct: bought protein coated on ELISA plates; also called OX40; TNFRSF4; not shown: His tag
T2 sequence (looked up): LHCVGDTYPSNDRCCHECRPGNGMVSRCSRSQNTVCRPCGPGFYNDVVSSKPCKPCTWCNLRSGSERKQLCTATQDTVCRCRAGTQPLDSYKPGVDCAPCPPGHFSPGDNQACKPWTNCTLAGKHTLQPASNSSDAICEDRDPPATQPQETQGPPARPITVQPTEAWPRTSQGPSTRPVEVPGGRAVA


Key:
[1] = biological target: T1, CD134 expressed on the cell surface of …; experiment: cell-based or functional assay
[2] = biological target: T1, CD134 expressed on the cell surface of …; experiment: HT1080_OX40 cells, imaging
[3] = biological target: T2, CD134 protein (His-tagged, Sino …); experiment: ELISA, coated His-tagged CD134
Note: test concentration or dose not given here.

Binder	Functional assay Cross-linked by F(ab′)2 fragment IL-8 [1] [abs. corr.]	Functional assay IL-8 [1] [abs. corr.]	Cellular binding assay [RFU] [2] [RFU]	ELISA [abs. corr.] [3] [abs. corr.]
P018.S.11.A.H04 (antibody, V domains shown, V regions on human Ig constant parts; also called AB134_47) VH: QEQLEESGGDLVKPGASLTLTCTASGLSFSGSYWICWVRQAPGKGLEWIGCITAGISGSTYYASWAKGRFTISKTSSTTVTLQMTSLTAADTATYFCARERTGGWGDFNLWGPGTLVTVSS VL: DVVMTQTPASVEAAVGGTVTIKCQASQSITTYLSWYQQKPGQPPKLLIYLASTLESGVPSRFKGSRSGTEYTLTISDLESADAATYYCQCTDGGINHWFWAFGGGTEVVVK	1.61	0.61	382	2.65
P018.S.02.A.F03 (antibody, V domains shown, V regions on human Ig constant parts; also called AB134_2) VH: QSVEESGGRLVTPGTPLTLTCTASGFSLSRYYMSWVRQAPGKGLEWIGFINTAGSAYYASWAKGRFTISRTSTTVDLKMTSLTTEDTATYFCARDLSRFSLWGRGTLVIVSS VL: AAVLTQTPSPVSAAVGGTVTINCQASPSVYSDYLSWFQKKPGQPPKLLIYWASTLASGVPSRFSGSGSGTQFTLTISDLESDDVATYYCAGGYSGNSDNWAFGGGTDVVVK	1.73	0.09	140	2.85
P018.S.04.A.E01 (antibody, V domains shown, V regions on human Ig constant parts; also called AB134_10) VH: QSVEESGGRLVTPGTPLTLTCTASGFSLSSSWMSWVRQAPGKGLEFIGFINTGGRAFYATWASGRFTISRTSTKVDLEITSPTSEDTATYFCVRGAAGYPEYDDGDLWGQGTLVTVSS VL: AQVLTQTLSPVSAAVGGTVTINCQSSPSVYHNNWLSWFQKKPGQPPKLLIYEASKLASGVPPRFSGSGSGTQFTLTISGVQSDDAATYYCAGSFSDNIYTFGGGTAMVVK	1.41	0.084	22	2.88
P018.S.11.A.E06 (antibody, V domains shown, V regions on human Ig constant parts; also called AB134_37) VH: QSVEESGGRLVTPGTPLTLTCTASGFSLSSYYMSWVRQAPGKGLEWIGIIDTGSGDTWYATWAKGRFTISKTSTTVDLKMTSLTTEDTATYFCARVNPEFAHVWPYYFDLWGQGTLVTVSS VL: ALVMTQTPASVEVAVGGTVTIKCQASQSISSNFLSWYQQNPGQPPKLLIDRASTLESGVPSRFKGSGSGTEFTLTISDLESADAATYYCQQGDSLSNVENAFGGGTELVVK	1.72	0.278	554	2.05
P018.S.11.A.G04 (antibody, V domains shown, V regions on human Ig constant parts; also called AB134_44) VH: QSVEESGGRLVTPGTPLTLTCTASGFDLSSYYMSWVRQAPGKGLEWIGIIYTDSSASYASWAKGRFTISRTSTTVDLKMTSPTTEDTATYFCARGLVVSTDNYNLWGPGTLVTVSS VL: AAVLTQTPSPVSVAVGGTVTINCQASQSIYNNNYLAWFQQKPGQPPKLLIYYTSTLASGVPSRFKGSGSGTQFTLTINGVQSDDAATYYCLGDVGGGMRVFGGGTEVVVK	1.75	0.014	482	2.13
P018.S.11.A.B04 (antibody, V domains shown, V regions on human Ig constant parts; also called AB134_25) VH: QEQLEESGGDLVKPEGSLTLTCTASGFSFSSAYYMCWVRQAPGKGLEWIACIDAGSSGSTYYASWAKGRFTISKTSSTTVTLQMTSLTAADTATYFCARDGGSTTGYGWLDLWGQGTLVTVSS VL: AVVMTQTASPVSAAVGGTVTINCQASQSIGTNYLSWYQQKPGQPPKLLIYEASNLETGVPSRFKGSGSGTEYSLTISDLESADAATYYCLYSYYSSSSAYTFGGGTEVVVK	1.66	-0.087	444	1.43
P018.S.11.A.F02 (antibody, V domains shown, V regions on human Ig constant parts; also called AB134_38) VH: QSVEESGGRLVTPGTPLTLTCTASGFSLSNYNMGWVRQAPGEGLEWIGHISTDGSAYYASWAKGRFTISKTSTTVDLKITSPTTEDTGTYFCARLYYRHGYALNLWGQGTLVTVSS VL: DIVMTQTPASVSEPVGGTVTIKCQASQSVGSYLAWYQQKSGQPPKLLIYSASTLASGVPSRFKGSGSGTEFTLTISDLVSADAATYYCHCTYGSNITANWGTFGGGTGVVVK	1.38	-0.011	503	2.43
P018.S.12.A.C05 (antibody, V domains shown, V regions on human Ig constant parts; also called AB134_65) VH: QSLEESGGRLVTPGTPLTLTCTASGFSLSNYYMNWVRQAPGKGLEWIGIIDKSGSAYYASWARGRFTISKTSTTVGLKIPSPTTEDTATYFCARGYGGYADHGLGLWGQGTLVTVSS VL: DVVMTQTPASVSEPVGGTVTIKCQASQSIAGWLAWYQQKPGQPPKLLIYQASKLASGVPSRFSGSGSGTEYTLTISDLESDDAATYYCQCTYGSGSGSNGFGGGTEVVVK	1.65	0.228	494	2.94
P018.S.11.A.E05 (antibody, V domains shown, V regions on human Ig constant parts; also called AB134_36) VH: QSLEESGGRLVTPGTPLTLNCTASGFSLSAYWMGWVRQAPGKGLEWIGIIYATGSTYYTTWAKGRFTISRTSTTVDLKMTSPTTEDTATYFCGRGDGYESLNLWGPGTLVTVSS VL: AQVLTQTPSSVSAAVGGTVTINCQSSQSVYSNNLLSWYQQKPGQPPKRLIYGASTLDSGVSSRFKGSGSGTQFTLTISGMQSDDAATYYCLGYYSGGIYVFGGGTEVVVK	1.42	-0.265	407	1.66

Now from value to binder:

Functional assay Cross-linked by F(ab′)2 fragment IL-8 [1] [abs. corr.]	Functional assay IL-8 [1] [abs. corr.]	Cellular binding assay [RFU] [2] [RFU]	ELISA [abs. corr.] [3] [abs. corr.]	Binder
1.58	-0.114	0	0.002	P018.S.13.A.G06 (antibody, V domains shown, V regions on human Ig constant parts; also called AB134_92) VH: QSLEESGGGLVKPGASLTLTCKASGFDLSSYYYMCWVRQAPGKGLEWIGCFYTDDSANTWYATWAKGRFTISKTSSTTVTLQMTSLTAADTATYFCARDASGWYWFNLWGPGTLVTVSS VL: AQVLTQTPSPVSAAVGGTVTISCQSSQSLHDDNALAWYQQKPGQPPKLLIYLASYLASGVPSRFKGSGSGTQFTLTISEVQSDDAATYYCQGAYSGDNNSFGGGTEVVVK
1.57	0.145	502	1.58	P018.S.12.A.A02 (antibody, V domains shown, V regions on human Ig constant parts; also called AB134_51) VH: QSLEESGGRLVTPGTPLTLTCTASGFSLSTYYMTWVRQAPGKGLEWIGDIYVRGGARYANWAKGRFTISRTSTTVDLRITSPTTEDTATYFCAREGLSLWGQGTLVTVSS VL: AQVLTQTASPVSAAVGGTVTINCQSSQSVYKNNRLAWYQQKPGQPPKLLIYETSKLESGVSSRFKGSGSGTQFTLTISGVQSDDAATYYCLGGYDCGSADCNAFGGGTEVVVK
1.63	0.355	497	2.59	P018.S.12.A.E02 (antibody, V domains shown, V regions on human Ig constant parts; also called AB134_73) VH: QSVEESGGRLVTPGTPLTLTCTASGFTLSSYYMGWVRQAPGKGLEWIGIIYPSGSAYYATWTKGRFTISRTSTTVDLKVTGPTTEDTATYFCARSTTSSLYYGYNLWGQGTLVTVSS VL: DIVMTQTPASVEAAVGGTVTIKCQASASITNWLAWYQQKPGQPPKLLIYKASTLESGVPSRFKGSGSGTEFTLTISDLESADAASYYCQSNYGGGSDTSHTFGGGTGVVVK
1.4	-0.007	514	1.99	P018.S.12.A.A04 (antibody, V domains shown, V regions on human Ig constant parts; also called AB134_53) VH: QSVEESGGRLVTPGTPLTLTCTVSGIDLSSYAMSWVRQAPGKGLEYIGIISGSGNTYYASWAKGRFTISKTSTTVDLKISSPTTEDTATYFCCRGDPSYSIDGFDPWGPGTLVTVSS VL: AAVLTQTPSPVSAAVGGTVTINCQSSQSVYNNNDLAWYQQKPGQPPKLLIYRASNLASGVPSRFSGSGSGTQFTLTISGVQSGDAATYYCLGAWDDDADTWAFGGGTEVVVE
1.53	0.267	503	2.86	P018.S.12.A.A05 (antibody, V domains shown, V regions on human Ig constant parts; also called AB134_54) VH: QSLEESGGRLVTPGTPLTLTCTASGFSLSNYYINWVRQAPGKGLEWIGIIDKSGSAYYASWARGRFTISKTSTTVGLKIPSPTTEDTATYFCARGYGGYADHGLGLWGQGTLVTVSS VL: DVVMTQTPASVSEPVGGTVTIKCQASQSIAGWLAWYQQKPGQPPKLLIYQASKLASGVPSRFSGSGSGTEYTLTISDLESDDAATYYCQCTYGSASGSNGFGGGTEVVVK
1.27	-0.074	496	2.48	P018.S.12.A.H03 (antibody, V domains shown, V regions on human Ig constant parts; also called AB134_89) VH: QSLEESRGGLVQPEGSLTLTCKASGFSFSSGYYMCWVRQAPGKGLEWIGCIYSGSDSACYASWAKGRFTISKTSSTTVTLQMTSLTVADTATYFCVRDLGDYNALSYTINLWGPGTLVTVSS VL: DVVMTQTPSSVSAAVGGTVTIKCQASQSISTNLAWYQEKAGQPPKLLIYRASTVASGVPSRFKGSGSGTQFTLTISDLESADATTYFCQCIDYDDYGGTFGGGTEVVVK
